# US20090081191A1 (MICROMET, published 2009)
# T1: recombinant soluble human 17-1A-antigen (human, UniProt P16422 24-265)
# T1 construct: extracellular domain; also called s17-1A; soluble 17-1A-antigen
# T1 sequence (looked up): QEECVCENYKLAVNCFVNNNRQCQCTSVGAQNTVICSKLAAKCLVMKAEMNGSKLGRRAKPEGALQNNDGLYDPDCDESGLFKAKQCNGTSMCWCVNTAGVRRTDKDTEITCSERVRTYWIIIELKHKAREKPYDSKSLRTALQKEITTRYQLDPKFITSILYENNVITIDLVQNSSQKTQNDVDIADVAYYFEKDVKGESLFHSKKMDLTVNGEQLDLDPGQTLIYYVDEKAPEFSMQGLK
# Tests used:
# [1] = target: recombinant soluble human 17-1A-antigen (human) (UniProt P16422); experiment: SPR (BIACORE 2000), s17-1A immobilized on CM5, 1. set
# [2] = target: recombinant soluble human 17-1A-antigen (human) (UniProt P16422); experiment: SPR (BIACORE 2000), s17-1A immobilized on CM5, 2. set
# [3] = target: T1, recombinant soluble human 17-1A-antigen; experiment: as above
# Method: Surface plasmon resonance measurement was performed using the BIACORE 2000 device (Biacore AB, Freiburg, Freiburg, Germany). Immobilization of recombinant soluble 17-1A-antigen in each flow cell and analysis of the interaction was carried out with an automatic method in BIACORE 2000. The antigen was covalently coupled to sensor chip CM5 via primary amine groups. After activation of the carboxylated dextran matrix of CM5 sensor chip with a single injection of […] of 0.1 M N-hydroxisuccinimide/0.4 M N-ethyl-N′-(3-dimethylaminopropyl)-carbodiimide (NHS/EDC9) through all four flow cells, flow cells 1,2,3 and 4 were successively included into the flow path during injection of s17-1A-antigen (60 μg/ml in 10 mM sodium acetate, pH 4.7). Different contact times of 17-1A to the activated surface lead to approximately 2500 response units (RU9 in flow cell 1, 14000 RU in flow cell 2, 780 RU in flow cell 3 and 290 RU in flow cell 4). Excess activated esters were blocked by injection of 85 μl 1 M ethanolamine pH 5 over all four flow cells. Binding experiments were performed at 25° C. in buffer of pH 7.4 containing 10 mM Hepes, 150 mM NaCl, 3 mM EDTA and 0.005% surfactant P20. The binding kinetics of antibodies to immobilized recombinant 17-1A were determined by injecting antibody concentrations ranging from 0.5 to […]. The sensor chip was regenerated between each run with 100 mM Glycin, 500 mM NaCl, 0.005% Tween pH3. The association and dissociation rate constants, Kon and Koff were analysed using BIA-evaluation software from Biacore AB as described (Karlsson, (1991) J Immunol Meth 145: 229-240).
# Two sets of affinity determinations were carried out (1. set: M79, H79, D7.2, Panorex; 2. set: Panorex, HD70); the murine Panorex was also included in set 2 as internal reference.
Kd [1] [nM],koff [1] [s⁻¹],kon [1] [M⁻¹ s⁻¹],Kd [2] [nM],koff [2] [s⁻¹],kon [2] [M⁻¹ s⁻¹],Kd [3] [nM],koff [3] [s⁻¹],kon [3] [M⁻¹ s⁻¹],Binder
200,0.022,110000,270,0.027,100000,–,–,–,"murine Panorex (antibody, INN chains, looked up, V domains shown) VH: QVQLQQSGAELVRPGTSVKVSCKASGYAFTNYLIEWVKQRPGQGLEWIGVINPGSGGTNYNEKFKGKATLTADKSSSTAYMQLSSLTSDDSAVYFCARDGPWFAYWGQGTLVTVSA VL: NIVMTQSPKSMSMSVGERVTLTCKASENVVTYVSWYQQKPEQSPKLLIYGASNRYTGVPDRFTGSGSATDFTLTISSVQAEDLADYHCGQGYSYPYTFGGGTKLEIK"
–,–,–,–,–,–,390,0.035,90000,"HD70 (VD4.5huIgG1-k5.1) (antibody, V domains shown, Complete human IgG1 antibody produced in CHO cells; also called human HD70; not shown: human IgG1 heavy chain constant region) VH: EVQLLESGGGVVQPGRSLRLSCAASGFTFSSYGMHWVRQAPGKGLEWVAVISYDGSNKYYADSVKGRFTISRDNSKNTLYLQMNSLRAEDTAVYYCAKDMGWGSGWRPYYYYGMDVWGQGTTVTVSS VL: ELQMTQSPSSLSASVGDRVTITCRASQSISSYLNWYQQKPGQPPKLLIYWASTRESGVPDRFSGSESGTNYTLTISSLQPEDFATYFCQQSDSLPITFGQGTRLDIQ"
